Reference: patent US20240018269A1

Tests used:
[1] = target: human FcγRIIb expressed on the cell surface (human) (UniProt P31994); assay: cell-based or functional assay
[2] = target: recombinant soluble FcγRIIb (human) (UniProt P31994); assay: BLI (Octet); anti-TNP IgG captured on TNP-BSA-biotin, rsFcγR in solution; global 1:1 Langmuir fit
[3] = target: recombinant soluble FcγRIIa-Arg131 (human) (UniProt P12318); assay: as above
Sequence of recombinant soluble FcγRIIa-Arg131 (human) (P12318 34-217 H167R): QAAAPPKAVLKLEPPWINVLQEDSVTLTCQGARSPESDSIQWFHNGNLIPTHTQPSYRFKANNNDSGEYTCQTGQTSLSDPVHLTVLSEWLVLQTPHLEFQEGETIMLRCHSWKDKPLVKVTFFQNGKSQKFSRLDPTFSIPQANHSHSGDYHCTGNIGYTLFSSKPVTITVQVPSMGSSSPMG

Sequence of human FcγRIIb expressed on the cell surface (human) (P31994 43-310): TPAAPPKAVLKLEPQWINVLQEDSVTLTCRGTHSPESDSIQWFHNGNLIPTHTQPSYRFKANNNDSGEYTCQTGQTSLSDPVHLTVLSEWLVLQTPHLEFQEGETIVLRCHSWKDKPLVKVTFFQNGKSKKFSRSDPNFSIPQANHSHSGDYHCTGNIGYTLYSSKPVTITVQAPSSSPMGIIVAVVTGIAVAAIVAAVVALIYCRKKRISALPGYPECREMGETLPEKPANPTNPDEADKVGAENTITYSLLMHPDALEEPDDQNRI
Sequence of recombinant soluble FcγRIIb (human) (P31994 43-217): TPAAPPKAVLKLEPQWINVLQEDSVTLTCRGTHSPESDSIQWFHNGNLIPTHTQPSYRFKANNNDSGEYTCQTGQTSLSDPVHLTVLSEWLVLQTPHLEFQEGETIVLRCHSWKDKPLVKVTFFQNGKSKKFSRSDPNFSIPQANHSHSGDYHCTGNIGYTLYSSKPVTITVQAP

% inhibition of basophil activation (whole blood BAT) [1] [%] | Ka [2] [M⁻¹] | Ka [3] [M⁻¹] | % inhibition of basophil activation (washed blood BAT) [1] [%] | Substance
13 | – | – | – | chimeric anti-TNP human IgG4-LLGG (antibody)
– | 7.4e+07 | 3.49e+08 | – | chimeric anti-TNP human IgG1-SELF (antibody)
– | 400000 | – | – | chimeric anti-TNP human IgG2-FEGG (antibody)
8 | – | – | 42 | chimeric anti-TNP human IgG4-FEGG (antibody)
